Assay results published in patent US20240376151A1, “STAPLED PEPTIDES AND METHODS THEREOF” (FOG PHARMACEUTICALS, INC., priority 2022, published 2024).
Bridge positions count the residues as written; N and C are the ends.

Target: T1, PPIA (Homo sapiens, UniProt P62937)
T1 construct: Full length PPIA (residues 1-165) with an N-terminal 6×his-yBBR-TEV tag; 6×his-yBBR-TEV (N); made in house; host or cells: E. coli BL21 (DE3) CodonPlus RIPL
Assay: Phage Library Screening with NGS, PPIA
Format: binding

[1] = target concentration 1000, first column
[2] = target concentration 1000, second column

T1 sequence (P62937 whole entry, the tested form may be a part): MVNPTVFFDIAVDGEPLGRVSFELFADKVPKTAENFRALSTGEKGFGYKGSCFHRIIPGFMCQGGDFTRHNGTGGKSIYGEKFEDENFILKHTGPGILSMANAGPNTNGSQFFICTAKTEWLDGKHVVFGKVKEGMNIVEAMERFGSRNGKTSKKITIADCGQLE

Sequence | phage screen counts, Target Concentration 10 | phage screen counts, Target Concentration 30 | phage screen counts, Target Concentration 100 | phage screen counts, Target Concentration 300 | phage screen counts, Target Concentration 1000 [1] | phage screen counts, Target Concentration 1000 [2]
PYDCHIAAWMC | 0 | 0 | 0 | 0 | 20 | 35
DPARYSCHVAAYECILN | 0 | 0 | 17 | 14 | 41 | 27
DPAYYDCHIAAYFCRTQ | 16 | 62 | 77 | 106 | 93 | 131
DPARADCHVAAYWCYQQ | 0 | 1 | 6 | 8 | 10 | 10
PECHVEAYFCE | 0 | 0 | 0 | 0 | 24 | 22
PTCHIHAYHCY | 0 | 0 | 3 | 5 | 31 | 8
DPARAACHVAAYWCYHQ | 0 | 1 | 3 | 7 | 6 | 7
DPAQHDCHVAAYQCIWE | 0 | 52 | 273 | 416 | 616 | 456
PDCHIAAWYCR | 0 | 0 | 0 | 0 | 11 | 10
DPARADCHVAAYWCYHR | 0 | 1 | 6 | 6 | 7 | 6
PDCHLNAYWCM | 0 | 0 | 1 | 47 | 47 | 115
DPARADCQVAAYWCYHQ | 0 | 3 | 13 | 16 | 20 | 21
DPARTDCHVAAYWCYHQ | 0 | 5 | 13 | 14 | 18 | 25
DPAAFSCHVAAWQCHTL | 0 | 1 | 156 | 199 | 142 | 190
DPARADCHVAAYWCHHQ | 0 | 0 | 4 | 5 | 8 | 7
DPAQADCHIAAYLCLFD | 0 | 0 | 10 | 19 | 25 | 18
PNCHVMAYWCW | 0 | 0 | 1 | 8 | 10 | 7
PHDCHVNAWYC | 0 | 0 | 0 | 26 | 21 | 45
DPARSDCHVAAYWCYHQ | 0 | 0 | 4 | 5 | 6 | 6
PTCHIDAWVCY | 0 | 0 | 0 | 12 | 18 | 26
DPALFDCHIAAYQCIFY | 0 | 0 | 25 | 29 | 20 | 55
PDCHIASWFCS | 0 | 0 | 0 | 3 | 25 | 5
PNCHVEAYFCM | 0 | 1 | 8 | 68 | 98 | 63
DPARADCHVAAYWCYHE | 0 | 1 | 4 | 7 | 9 | 7
PDCHIRAYVCH (Ac-PDCHIRAYVCH-NH2; bridge 3-10; also: Cys-Cys staple, linker not named) | 0 | 0 | 1 | 8 | 11 | 120
DPATMNCHVAAYFCIVE | 0 | 0 | 10 | 13 | 10 | 19
PDCHVAAWMCF | 0 | 0 | 0 | 8 | 16 | 26
